Laboratory results as given in US20240391954A1, “MC4R AGONIST PEPTIDES” (The Regents of the University of Michigan, priority 2021, published 2024).
Starred links: 1 amine or outer side, 2 acyl side, 3 side chain; linkers in the order of their positions; H or OH if unused. Positions of bridges follow the written chain, without caps; N, C: chain ends. Non-standard residues stand in square brackets, D forms with d. Primed or numbered codes have the meaning given here. dTyr(4-OMe) = O-methyl-D-tyrosine (4-OMe), COc1ccc(C[C@@H](N[*:1])C(=O)[*:2])cc1; dTyr(4-OMe)″ = O-methyl-D-tyrosine, COc1ccc(C[C@@H](N[*:1])C(=O)[*:2])cc1; dDip = N[C@@H](C(=O)O)C(c1ccccc1)c1ccccc1; dPhe(4-Br) = N[C@H](Cc1ccc(Br)cc1)C(=O)O; d2Nal = N[C@H](Cc1ccc2ccccc2c1)C(=O)O; d(αMeF) = C[C@@](N)(Cc1ccccc1)C(=O)O; dNMeF = CN[C@H](Cc1ccccc1)C(=O)O; dTic = O=C(O)[C@H]1Cc2ccccc2CN1; Cit = NC(=O)NCCC[C@H](N)C(=O)O; Nle = CCCC[C@H](N)C(=O)O; Aib = CC(C)(N)C(=O)O

B1: CTX-1272 (peptide)
peptide: Ac-RC[dA]R[dNMeF]R[dW]C-NH2
modifications: disulfide 2-8
SMILES: CC(=O)N[C@@H](CCCNC(=N)N)C(=O)N[C@H]1CSSC[C@@H](C(N)=O)NC(=O)[C@@H](Cc2c[nH]c3ccccc23)NC(=O)[C@H](CCCNC(=N)N)NC(=O)[C@@H](Cc2ccccc2)N(C)C(=O)[C@H](CCCNC(=N)N)NC(=O)[C@@H](C)NC1=O
B2: CTX-1283 (peptide)
peptide: Ac-RC[dA]R[dF][dR][dW]C-NH2
modifications: disulfide 2-8
SMILES: CC(=O)N[C@@H](CCCNC(=N)N)C(=O)N[C@H]1CSSC[C@@H](C(N)=O)NC(=O)[C@@H](Cc2c[nH]c3ccccc23)NC(=O)[C@@H](CCCNC(=N)N)NC(=O)[C@@H](Cc2ccccc2)NC(=O)[C@H](CCCNC(=N)N)NC(=O)[C@@H](C)NC1=O
B3: CTX-1282 (peptide)
peptide: Ac-RC[dA]R[dF][dR]WC-NH2
modifications: disulfide 2-8
SMILES: CC(=O)N[C@@H](CCCNC(=N)N)C(=O)N[C@H]1CSSC[C@@H](C(N)=O)NC(=O)[C@H](Cc2c[nH]c3ccccc23)NC(=O)[C@@H](CCCNC(=N)N)NC(=O)[C@@H](Cc2ccccc2)NC(=O)[C@H](CCCNC(=N)N)NC(=O)[C@@H](C)NC1=O
B4: CTX-1280 (peptide)
peptide: Ac-RC[dA]R[dDip]R[dW]C-NH2
modifications: disulfide 2-8
B5: CTX-1615 (peptide)
peptide: Ac-R[Nle]CR[dTyr(4-OMe)″]R[dW]C-NH2
modifications: disulfide 3-8
SMILES: CCCC[C@H](NC(=O)[C@H](CCCNC(=N)N)NC(C)=O)C(=O)N[C@H]1CSSC[C@@H](C(N)=O)NC(=O)[C@@H](Cc2c[nH]c3ccccc23)NC(=O)[C@H](CCCNC(=N)N)NC(=O)[C@@H](Cc2ccc(OC)cc2)NC(=O)[C@H](CCCNC(=N)N)NC1=O
B6: CTX-1614 (peptide)
peptide: Ac-R[Nle]CR[dTyr(4-OMe)″]RWC-NH2
modifications: disulfide 3-8
SMILES: CCCC[C@H](NC(=O)[C@H](CCCNC(=N)N)NC(C)=O)C(=O)N[C@H]1CSSC[C@@H](C(N)=O)NC(=O)[C@H](Cc2c[nH]c3ccccc23)NC(=O)[C@H](CCCNC(=N)N)NC(=O)[C@@H](Cc2ccc(OC)cc2)NC(=O)[C@H](CCCNC(=N)N)NC1=O
B7: CTX-2205 (peptide)
peptide: Ac-RC[dA]R[dPhe(4-Br)]RWC-NH2
modifications: disulfide 2-8
B8: CTX-1600 (peptide)
peptide: Ac-RC[Aib][Cit][dTyr(4-OMe)″]R[dW]C-NH2
modifications: disulfide 2-8
B9: CTX-2204 (peptide)
peptide: Ac-RC[dA]P[dPhe(4-Br)]RWC-NH2
modifications: disulfide 2-8
SMILES: CC(=O)N[C@@H](CCCNC(=N)N)C(=O)N[C@H]1CSSC[C@@H](C(N)=O)NC(=O)[C@H](Cc2c[nH]c3ccccc23)NC(=O)[C@H](CCCNC(=N)N)NC(=O)[C@@H](Cc2ccc(Br)cc2)NC(=O)[C@@H]2CCCN2C(=O)[C@@H](C)NC1=O
B10: CTX-1273 (peptide)
peptide: Ac-RC[dA]R[dTic]R[dW]C-NH2
modifications: disulfide 2-8
B11: CTX-1641 (peptide)
peptide: Ac-CGR[dTyr(4-OMe)]RFC-NH2
modifications: disulfide 1-7
SMILES: COc1ccc(C[C@H]2NC(=O)[C@H](CCCNC(=N)N)NC(=O)CNC(=O)[C@@H](NC(C)=O)CSSC[C@@H](C(N)=O)NC(=O)[C@H](Cc3ccccc3)NC(=O)[C@H](CCCNC(=N)N)NC2=O)cc1
B12: CTX-2203 (peptide)
peptide: Ac-RC[dA]P[d2Nal]RWC-NH2
modifications: disulfide 2-8
SMILES: CC(=O)N[C@@H](CCCNC(=N)N)C(=O)N[C@H]1CSSC[C@@H](C(N)=O)NC(=O)[C@H](Cc2c[nH]c3ccccc23)NC(=O)[C@H](CCCNC(=N)N)NC(=O)[C@@H](Cc2ccc3ccccc3c2)NC(=O)[C@@H]2CCCN2C(=O)[C@@H](C)NC1=O
B13: CTX-1279 (peptide)
peptide: Ac-RC[dA]R[d(αMeF)]R[dW]C-NH2
modifications: disulfide 2-8
SMILES: CC(=O)N[C@@H](CCCNC(=N)N)C(=O)N[C@H]1CSSC[C@@H](C(N)=O)NC(=O)[C@@H](Cc2c[nH]c3ccccc23)NC(=O)[C@H](CCCNC(=N)N)NC(=O)[C@@](C)(Cc2ccccc2)NC(=O)[C@H](CCCNC(=N)N)NC(=O)[C@@H](C)NC1=O
B14: CTX-1274 (peptide)
peptide: Ac-RC[dA]R[dW]RWC-NH2
modifications: disulfide 2-8
SMILES: CC(=O)N[C@@H](CCCNC(=N)N)C(=O)N[C@H]1CSSC[C@@H](C(N)=O)NC(=O)[C@H](Cc2c[nH]c3ccccc23)NC(=O)[C@H](CCCNC(=N)N)NC(=O)[C@@H](Cc2c[nH]c3ccccc23)NC(=O)[C@H](CCCNC(=N)N)NC(=O)[C@@H](C)NC1=O
B15: CTX-1640 (peptide)
peptide: Ac-CGR[dPhe(4-Br)]RFC-NH2
modifications: disulfide 1-7

These binders were tested against T1, human MC4R receptor (human, UniProt P32245 1-332) (assay: cell-based or functional assay).
T1 sequence (P32245 whole entry): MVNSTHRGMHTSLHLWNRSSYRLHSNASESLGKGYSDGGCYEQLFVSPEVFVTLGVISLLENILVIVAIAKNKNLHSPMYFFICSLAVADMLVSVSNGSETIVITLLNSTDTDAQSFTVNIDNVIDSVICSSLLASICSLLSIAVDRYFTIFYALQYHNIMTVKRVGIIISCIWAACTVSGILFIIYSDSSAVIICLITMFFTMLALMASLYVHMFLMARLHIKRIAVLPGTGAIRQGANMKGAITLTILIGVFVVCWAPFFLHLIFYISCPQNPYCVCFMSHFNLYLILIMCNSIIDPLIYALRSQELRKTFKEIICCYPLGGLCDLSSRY

MC4R selectivity vs MC1R | MC4R selectivity vs MC3R | Binder
0.21 | 0.9 | B1
0.03 | 0.12 | B2
0.14 | 0.38 | B3
0.1 | 1.24 | B4
0.26 | 2.14 | B5
0.08 | 1.89 | B6
0.2 | 2.12 | B7
> 70 | > 70 | B8
– | 0.19 | B9
0.05 | 0.64 | B10
0.28 | 1.18 | B11
– | 2.45 | B12
0.83 | 0.61 | B13
0.19 | 0.12 | B14
3.72 | 3.09 | B15

What follows are binders tested against human MC3R (human, UniProt P41968 1-323) (assay: cell-based or functional assay).
Chain of human MC3R (P41968 whole entry): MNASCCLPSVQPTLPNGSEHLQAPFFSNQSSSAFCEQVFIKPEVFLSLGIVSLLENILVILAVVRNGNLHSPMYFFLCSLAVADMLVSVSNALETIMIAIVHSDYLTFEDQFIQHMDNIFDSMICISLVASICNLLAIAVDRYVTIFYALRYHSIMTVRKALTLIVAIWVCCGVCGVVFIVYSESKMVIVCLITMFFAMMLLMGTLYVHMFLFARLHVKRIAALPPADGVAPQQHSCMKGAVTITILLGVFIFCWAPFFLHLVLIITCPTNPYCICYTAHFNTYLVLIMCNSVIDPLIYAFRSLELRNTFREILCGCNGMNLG

% max activation | cAMP EC50 | Binder
0.9% | 671 nM | B1
7.8% | 719 nM | B2
4.2% | 545 nM | B3
2.6% | 541 nM | B4
55% | 27 nM | B5
28% | 3.2 nM | B6
13% | 18 nM | B7
– | > 10000 nM | B8
0.2% | 11 nM | B9
3.7% | 4780 nM | B10
22% | 52 nM | B11
1% | 29 nM | B12
20% | 43 nM | B13
5.4% | 164 nM | B14
27% | 10 nM | B15

Target: T1, human MC4R receptor
Test: cell-based or functional assay
Remark: another data set of the same source

% max activation | cAMP EC50 | Binder
5.3% | 750 nM | B1
55% | 5860 nM | B2
72% | 1420 nM | B3
4% | 438 nM | B4
68% | 13 nM | B5
41% | 1.7 nM | B6
88% | 8 nM | B7
58% | 142 nM | B8
13% | 58 nM | B9
32% | 7430 nM | B10
104% | 44 nM | B11
1.4% | 12 nM | B12
79% | 72 nM | B13
77% | 1400 nM | B14
100% | 3.4 nM | B15
